This is an account of results in patent US20260240908A1 (FRED HUTCHINSON CANCER CENTER, published 2026).

Experiment [1] concerns the target T1, PD-1 on the cell surface (Molt-4 cells; KG PD-1 cells) (UniProt Q15116 25-288, limits assumed).
T1 construct: whole, on cells; Molt-4 is a human acute lymphoblastic leukemia line; also called PD-1-expressing Molt 4 cells; K562 GFP (KG) PD-1 cells
Description: flow cytometry of detectable cell surface PD-1 on Molt-4 cells that co-express the CAR (masking in cis). In general terms: A flow cytometer gives signals particle by particle.

Experiment [2] addresses T2, PE- or biotin-conjugated human PD-1 Fc fusion protein (Acrobiosystems) (human, UniProt Q15116 25-167, limits assumed, PE- or biotin-conjugated).
T2 construct: Bought reagent (Acrobiosystems); also called PD-1-Fc-PE; PD-1 Fc chimera; not shown: Fc part of the bought fusion protein
Description: flow cytometry, PD-1 Fc staining of transduced Jurkat Nur77-NeonGreen cells. An excerpt:
The biotin-conjugated PD-1-Fc protein was counterstained with BV421-conjugated Streptavidin (Invitrogen).
The EGFRt-tag was detected as a surrogate marker for CAR expression for the six constructs (FIGS. 2A and 9). CARs directed against antigens expressed in T cells may at times lead to fratricide and hamper CAR T cell production.

T2 sequence (Q15116 25-167 limits assumed): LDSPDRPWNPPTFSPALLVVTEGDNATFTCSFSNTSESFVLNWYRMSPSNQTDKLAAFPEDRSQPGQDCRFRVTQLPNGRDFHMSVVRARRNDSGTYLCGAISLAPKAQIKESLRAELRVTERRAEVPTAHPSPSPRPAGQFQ
T1 sequence (Q15116 25-288 limits assumed): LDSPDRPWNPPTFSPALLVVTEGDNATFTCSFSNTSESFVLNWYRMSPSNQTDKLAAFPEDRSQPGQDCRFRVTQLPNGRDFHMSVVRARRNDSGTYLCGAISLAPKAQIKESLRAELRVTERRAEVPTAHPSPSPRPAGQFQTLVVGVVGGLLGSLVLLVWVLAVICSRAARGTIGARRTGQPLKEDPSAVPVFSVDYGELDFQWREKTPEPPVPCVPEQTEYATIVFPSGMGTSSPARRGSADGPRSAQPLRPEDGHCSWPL

B1: VH VL S anti-PD-1 CAR BD ΔCD3ζ (other)
chain: QVQLVQSGVEVKKPGASVKVSCKASGYTFANYFMYWVRQAPGQGLEWMGGIAPAAGGAAFNEKFKNRVTLTTDSSTTTAYMELKSLQFDDTAVYYCARADFAFDMGFDYWGQGTTVTVSSASTKGGGGGSGGGGSGGGGSEIVLTQSPATLSLSPGERATLSCRASKGVSTAGFSYLHWYQQKPGQAPRLLIFLASFLESGVPARFSGSGSGTDFTLTISSLEPEDFAVYYCQHARALPLTFGGGTKVEIKRTVAAPSVFIFPPSDEQLKSGTAESKYGPPCPPCPMFWVLVVVGGVLACYSLLVTVAFIIFWVKRGRKKLLYIFKQPFMRPVQTTQEEDGCSCRFPEEEEGGCEL
notes: Residues 1-22 are the GM-CSF signal peptide, left out
As for B1, the binding result in experiment [1] and in experiment [2] was “no binding” throughout.

B2: VH VL S anti-PD-1 CAR BD (binding-defective) (other)
chain: QVQLVQSGVEVKKPGASVKVSCKASGYTFANYFMYWVRQAPGQGLEWMGGIAPAAGGAAFNEKFKNRVTLTTDSSTTTAYMELKSLQFDDTAVYYCARADFAFDMGFDYWGQGTTVTVSSASTKGGGGGSGGGGSGGGGSEIVLTQSPATLSLSPGERATLSCRASKGVSTAGFSYLHWYQQKPGQAPRLLIFLASFLESGVPARFSGSGSGTDFTLTISSLEPEDFAVYYCQHARALPLTFGGGTKVEIKRTVAAPSVFIFPPSDEQLKSGTAESKYGPPCPPCPMFWVLVVVGGVLACYSLLVTVAFIIFWVKRGRKKLLYIFKQPFMRPVQTTQEEDGCSCRFPEEEEGGCELRVKFSRSADAPAYQQGQNQLYNELNLGRREEYDVLDKRRGRDPEMGGKPRRKNPQEGLYNELQKDKMAEAYSEIGMKGERRRGKGHDGLYQGLSTATKDTYDALHMQALPPR
notes: as for B1
Take B2: the binding result in experiment [1] and in experiment [2] was “no binding” in each case.
